This assay addresses Atad2-tag (endogenous mouse Atad2 with a C-terminal 6xHis-Flag-Ha TAP tag, knock-in) (mouse (endogenous in 46C ES cells)) (UniProt Q8CDM1). Briefly: co-IP; anti-Flag immunoprecipitation of protein extracts of 46C^tag and parental 46C ES cells; western blot with anti-H4 and anti-acetylated H4, compared with dilutions of the input. In general terms: A western blot detects proteins with antibodies after separation by electrophoresis.
UniProt Q8CDM1, sequence (Q8CDM1 whole entry): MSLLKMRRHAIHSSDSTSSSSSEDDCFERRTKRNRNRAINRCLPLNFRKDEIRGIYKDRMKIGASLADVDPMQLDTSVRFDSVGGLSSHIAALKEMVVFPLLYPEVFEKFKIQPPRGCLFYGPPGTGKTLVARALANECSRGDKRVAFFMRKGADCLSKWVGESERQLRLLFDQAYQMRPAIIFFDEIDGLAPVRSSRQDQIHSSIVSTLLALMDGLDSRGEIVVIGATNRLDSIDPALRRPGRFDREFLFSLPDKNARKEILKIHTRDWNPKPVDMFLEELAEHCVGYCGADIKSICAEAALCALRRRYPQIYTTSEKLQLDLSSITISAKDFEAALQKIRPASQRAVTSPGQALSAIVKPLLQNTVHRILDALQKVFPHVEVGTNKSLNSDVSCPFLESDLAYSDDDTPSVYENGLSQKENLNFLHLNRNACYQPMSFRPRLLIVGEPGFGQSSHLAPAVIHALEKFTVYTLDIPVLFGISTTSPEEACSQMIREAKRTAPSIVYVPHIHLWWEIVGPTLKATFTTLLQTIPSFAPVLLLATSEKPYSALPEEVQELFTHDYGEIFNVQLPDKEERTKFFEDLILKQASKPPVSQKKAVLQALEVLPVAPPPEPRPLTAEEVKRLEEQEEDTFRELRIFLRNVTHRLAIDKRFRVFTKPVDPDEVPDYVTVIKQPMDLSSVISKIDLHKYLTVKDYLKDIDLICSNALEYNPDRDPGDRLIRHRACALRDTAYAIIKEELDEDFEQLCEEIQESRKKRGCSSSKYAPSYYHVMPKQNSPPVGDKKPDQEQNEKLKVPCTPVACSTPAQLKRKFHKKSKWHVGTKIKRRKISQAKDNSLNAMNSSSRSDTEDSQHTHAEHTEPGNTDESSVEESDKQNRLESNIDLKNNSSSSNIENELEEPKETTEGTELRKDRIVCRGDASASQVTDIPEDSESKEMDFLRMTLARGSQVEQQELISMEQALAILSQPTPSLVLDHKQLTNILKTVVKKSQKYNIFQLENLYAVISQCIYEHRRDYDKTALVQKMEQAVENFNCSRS

With “histone H4 (from UniProt P62806 1-103) (natural protein)”, the fraction of the input immunoprecipitated (fraction of the input) was 0.01.

In the case of “acetylated histone H4 (from UniProt P62806 1-103) (natural protein)”, the fraction of the input immunoprecipitated (fraction of the input) stood at 0.02.
